Patent US12534534 (F STAR BETA, dated 2026)

B1: FS20-22-49AA/FS30-5 variant, Methionine (100H) to L (bispecific antibody, V domains shown)
VH: EVQLLESGGGLVQPGGSLRLNCAASGFTFSSYAMSWVRQAPGKGLEWVSAISGSGGSTYYADSVKGRFTISRDNSKNTLYLQMNSLRAEDTAVYYCARSYDKYWGSSMYSGLDYWGQGTLVTVSS
VL: EIVLTQSPGTLSLSPGERATLSCRASQSVSSSYLAWYQQKPGQAPRLLIYGASSRATGIPDRFSGSGSGTDFTLTISRLEPEDFAVYYCQQYYSYYPVTFGQGTKVEIKR
B2: G1/MOR7480.1 (antibody, human IgG1, lambda)
heavy: not shown
light: SYELTQPPSVSVSPGQTASITCSGDNIGDQYAHWYQQKPGQSPVLVIYQDKNRPSGIPERFSGSNSGNTATLTISGTQAMDEADYYCATYTGFGSLAVFGGGTKLTVLGQPKAAPSVTLFPPSSEELQANKATLVCLISDFYPGAVTVAWKADSSPVKAGVETTTPSKQSNNKYAASSYLSLTPEQWKSHRSYSCQVTHEGSTVEKTVAPTECS
notes: human IgG1 without LALA; also called MOR7480.1 in IgG1 format

Assays:
[1] = target: T1, human CD137 on DO11.10-hCD137 cells (human, UniProt Q07011 24-255); test: cell-based or functional assay
[2] = target: T1, human CD137 on DO11.10-hCD137 cells; test: cell binding at 10 nM to DO11.10-hCD137 cells, against the parent FS20-22-49AA/FS30-5
[3] = target: T2, CD40-mFc (human, UniProt P25942 21-193); test: SPR, antigen immobilised on CM5 chip
T2 construct: in-house produced; not shown: mFc part
Description: (§1) Flow cell 1 was run as a blank immobilisation. The five FS20-22-49AA/FS30 mAb² were diluted to 1 μM and 1 nM in 1×HBS-EP buffer (GE Healthcare, product code BR100188), allowed to flow over the chip for 3 min and then allowed to dissociate for 4 minutes. A 30-second injection of 10 mM glycine pH 1.5 was used for regeneration. […] Binding levels were determined at the end of the association phase and compared.
(§2) Specificity was tested against the same five human TNFRSF members closely-related to CD137 (TNFRSF1A, TNFRSF1B, GITR, NGFR and CD40) plus an additional closely-related TNFRSF member, human DR6 (DR6-Fc; R&D Systems, 144-DR-100), using SPR as described in Example 3.1.

[4] = target: T3, DR6-Fc (human, UniProt O75509 42-349, limits assumed); test: SPR, antigen immobilised on CM5 chip
T3 construct: bought; also called human DR6 (R&D Systems, 144-DR-100); not shown: Fc part of the bought fusion
T3 sequence (looked up): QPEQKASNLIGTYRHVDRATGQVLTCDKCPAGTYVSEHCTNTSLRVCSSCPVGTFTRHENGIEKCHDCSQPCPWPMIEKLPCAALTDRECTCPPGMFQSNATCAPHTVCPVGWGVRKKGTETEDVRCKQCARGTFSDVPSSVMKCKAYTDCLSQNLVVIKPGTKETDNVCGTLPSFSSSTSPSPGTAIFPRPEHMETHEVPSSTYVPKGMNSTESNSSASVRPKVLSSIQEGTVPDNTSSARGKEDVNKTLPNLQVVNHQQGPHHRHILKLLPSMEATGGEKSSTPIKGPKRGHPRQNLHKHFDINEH
Description: as §1, §2

[5] = target: T4, TNFRSF1A-Fc (human, UniProt P19438 30-211, limits assumed); test: SPR, antigen immobilised on CM5 chip
T4 construct: bought; also called TNFRSF1A (R&D Systems, 372-RI-050/CF); not shown: Fc part of the bought fusion
T4 sequence (looked up): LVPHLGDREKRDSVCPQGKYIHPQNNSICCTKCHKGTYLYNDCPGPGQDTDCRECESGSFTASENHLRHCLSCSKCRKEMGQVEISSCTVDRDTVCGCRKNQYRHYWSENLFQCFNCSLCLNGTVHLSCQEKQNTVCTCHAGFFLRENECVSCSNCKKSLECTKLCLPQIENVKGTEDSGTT
Description: as §1, §2

[6] = target: T5, GITR-hFc-Avi (human, UniProt Q9Y5U5 26-161); test: SPR, antigen immobilised on CM5 chip
T5 construct: in-house produced; not shown: hFc and Avi part
T5 sequence: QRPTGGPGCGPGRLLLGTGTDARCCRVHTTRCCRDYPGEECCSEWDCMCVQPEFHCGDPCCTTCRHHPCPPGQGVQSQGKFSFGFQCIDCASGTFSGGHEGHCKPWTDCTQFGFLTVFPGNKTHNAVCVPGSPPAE
Description: as §1, §2

[7] = target: T6, TNFRSF1B-Fc (human, UniProt P20333 23-257); test: SPR, antigen immobilised on CM5 chip
T6 construct: bought; also called TNFRSF1B (R&D Systems, 726-R2-050); not shown: Fc part of the bought fusion
T6 sequence (looked up): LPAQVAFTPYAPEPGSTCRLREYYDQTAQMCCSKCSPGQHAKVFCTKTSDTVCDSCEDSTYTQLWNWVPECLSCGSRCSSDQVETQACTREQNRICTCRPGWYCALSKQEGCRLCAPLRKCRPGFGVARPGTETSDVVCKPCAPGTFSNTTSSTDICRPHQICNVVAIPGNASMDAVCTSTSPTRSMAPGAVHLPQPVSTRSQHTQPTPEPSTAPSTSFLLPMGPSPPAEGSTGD
Description: as §1, §2

[8] = target: T7, NGFR-Fc (human, UniProt P08138 29-250); test: SPR, antigen immobilised on CM5 chip
T7 construct: bought; also called NGFR (R&D Systems, 367-NR-050/CF); not shown: Fc part of the bought fusion
T7 sequence (looked up): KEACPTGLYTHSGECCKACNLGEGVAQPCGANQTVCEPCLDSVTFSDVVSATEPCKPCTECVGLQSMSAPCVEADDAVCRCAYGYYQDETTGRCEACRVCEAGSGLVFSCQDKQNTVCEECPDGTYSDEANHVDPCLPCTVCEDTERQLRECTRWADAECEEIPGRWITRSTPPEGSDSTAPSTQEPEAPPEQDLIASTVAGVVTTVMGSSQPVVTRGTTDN
Description: as §1, §2

[9] = target: T8, cCD137-mFc-Avi (cynomolgus, Homodimer through the mouse Fc (one chain given). In the biotinylated version one biotin sits on the Avi-tag lysine of each monomer.); test: SPR (Biacore 3000), mAb captured by anti-human Fc, dimeric CD137-mFc as analyte, 1:1 model with mass transfer
T8 construct: dimer; biotinylated version used on streptavidin plates; also called cyno CD137-mFc-Avi; cyno CD137-mFc
T8 chain: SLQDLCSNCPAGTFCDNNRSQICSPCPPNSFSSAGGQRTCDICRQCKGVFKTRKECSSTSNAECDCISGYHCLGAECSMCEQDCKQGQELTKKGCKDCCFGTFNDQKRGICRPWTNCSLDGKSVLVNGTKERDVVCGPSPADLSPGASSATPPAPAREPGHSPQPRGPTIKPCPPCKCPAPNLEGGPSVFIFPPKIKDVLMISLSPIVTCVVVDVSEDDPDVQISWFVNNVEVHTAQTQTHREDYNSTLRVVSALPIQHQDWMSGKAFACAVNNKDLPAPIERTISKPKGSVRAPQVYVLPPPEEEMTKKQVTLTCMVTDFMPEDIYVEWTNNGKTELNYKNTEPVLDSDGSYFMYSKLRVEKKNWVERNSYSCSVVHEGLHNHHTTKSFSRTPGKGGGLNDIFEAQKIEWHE
Description: Briefly, 25 µg/ml anti-human IgG (Fc) antibody (GE Healthcare, Human Antibody Capture Kit, BR100839) was coated on flow cells 1, 2, 3 and 4 of a Biacore sensor chip CM5 (GE Healthcare, BR100012) for 3 minutes at 5 µl/min, achieving a final response of approximately 4300 RU. The mAb² clones, diluted in HBS-EP buffer (GE Healthcare, BR100188) at 0.5 µg/ml, were injected individually on flows cell 2, 3 and 4 at 30 µl/min to achieve a response of approximately 80 RU. […] Regeneration was achieved by injecting 3 M magnesium chloride (GE Healthcare, Human Antibody Capture Kit, BR100839) for 30 seconds at a rate of 30 µl/min. […] These slightly less stringent conditions were used to assess whether this molecule could bind to cyno CD137-mFc. Subtracted data (flow cell 2-flow cell 1, flow cell 3-flow cell 1, or flow cell 4-flow cell 1) were analysed using BIAevaluation 3.2 Software (GE Healthcare) to identify binding using the model 1:1 binding with mass transfer, with refractive index (RI) constant 0.

T1 sequence (Q07011 24-255): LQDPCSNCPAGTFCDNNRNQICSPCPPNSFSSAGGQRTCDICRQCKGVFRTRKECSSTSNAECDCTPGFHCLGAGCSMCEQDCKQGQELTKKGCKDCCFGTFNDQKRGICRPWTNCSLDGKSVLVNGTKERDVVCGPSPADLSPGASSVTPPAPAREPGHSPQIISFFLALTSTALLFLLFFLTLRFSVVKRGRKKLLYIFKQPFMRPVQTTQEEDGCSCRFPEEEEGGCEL
T2 sequence (P25942 21-193): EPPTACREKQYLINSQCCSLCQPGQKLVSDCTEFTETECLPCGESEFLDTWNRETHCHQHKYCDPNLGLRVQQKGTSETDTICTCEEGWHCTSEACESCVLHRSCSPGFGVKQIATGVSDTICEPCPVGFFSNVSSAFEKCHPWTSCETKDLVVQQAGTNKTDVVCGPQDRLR

DO11.10-hCD137 T cell activation assay EC50 (nM), crosslinked [1]	fold change of cell binding at 10 nM against the parent clone [2]	binding result [3]	binding result [4]	binding result [5]	binding result [6]	binding result [7]	binding result [8]	Kd [9]	Binder
5.9 nM	< 1.3 fold								B1
		no binding	no binding	no binding	no binding	no binding	no binding	0.34 nM	B2
